Measured values as given in patent US20140162285A1, “Methods of Modulating Vesicular Trafficking” (The General Hospital Corporation, priority 2009, published 2014).

Biological target: T1, ARNO(wt) (Homo sapiens, UniProt Q99418)
T1 construct: i) 1-400aa, full length ARNO(wt); GST (N); made in house; host or cells: E. coli BL21(DE3)
T1 sequence (Q99418 1-400): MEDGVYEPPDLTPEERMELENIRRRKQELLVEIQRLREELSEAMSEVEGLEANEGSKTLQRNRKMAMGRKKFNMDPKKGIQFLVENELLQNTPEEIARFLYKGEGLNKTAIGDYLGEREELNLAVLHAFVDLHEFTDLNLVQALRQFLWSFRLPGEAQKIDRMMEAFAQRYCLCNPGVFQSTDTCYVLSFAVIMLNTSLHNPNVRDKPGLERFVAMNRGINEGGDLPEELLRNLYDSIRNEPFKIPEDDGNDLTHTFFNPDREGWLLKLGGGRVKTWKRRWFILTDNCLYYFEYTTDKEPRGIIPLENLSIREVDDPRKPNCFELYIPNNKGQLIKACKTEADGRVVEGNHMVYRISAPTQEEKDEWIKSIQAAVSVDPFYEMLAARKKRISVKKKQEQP
Experiment: surface plasmon resonance (BIAcore T100) kinetic analysis a2N(wt)/ARNO(wt)
Type: binding
Text: 6A, Kinetic analysis and estimation of a dissociation constant (KD) for interaction between full-length a2N(wt) and ARNO(wt) proteins. Sensorgrams for the binding of recombinant a2N-6His immobilized as ligand on the sensor chip, with various concentrations of 6His-ARNO as analyte are shown as follows. The responses on the sensorgram are designated in resonance units (RU). […] 6B, Kinetic analysis and estimation of KD for interaction between a2N-01 peptide and Sec7-domain of ARNO. Sensorgrams for the binding of a2N-01 peptide immobilized as ligand on the sensor chip, with various concentrations of Sec7-domain as analyte are shown as follows. The responses on the sensorgram are designated in resonance units (RU).
All reagents, including buffers, sensor chips and the amine coupling kit, were obtained from GE Healthcare. For kinetic analysis of the binding of ARNO(wt) with a2N(wt), purified 6His-a2N (5 μg/ml) in 10 mM sodium acetate (pH 4.0) was immobilized at 80 response units (RU) on a CM4 sensor chip using an amine coupling kit according to the manufacturer's instructions. The same kit was used to perform blank immobilization to create a reference surface on the same chip. Samples of purified GST-ARNO(wt) at concentrations ranging from 0.25-4 μM were injected for 6 min over active and reference surfaces at a flow rate of 30 μl/min in NBS-EP, 1 mM DTT running buffer (10 mM Hepes, pH 7.4, 150 mM NaCl, 3 mM EDTA, 0.05% Surfactant P20, 1 mM DTT). For kinetic analysis of the binding of the ARNO Sec7-domain with a2N-01 peptide, neutravidin (10 μg/ml) in 10 mM sodium acetate (pH 5.0) was immobilized at about 1200 RU on two surfaces of a CM4 sensor chip using an amine coupling kit. Following that, biotinylated a2N-01 peptide (50 RU) and amine-PEG3-biotin (25 RU) were irreversibly captured by neutravidin to create active and a reference surfaces, respectively. Purified Sec7-6His recombinant protein was injected for 3.5 min over active and reference surfaces at concentrations ranging from 0.05-1 μM and a flow rate of 100 μl/min in NBS-EP, 1 mM DTT running buffer. Dissociation of the complexes was monitored for 10 min, and then the regeneration of the sensor surfaces was performed using 0.05% SDS with 1-min injection in the running buffer at a 20 μl/min flow rate. […] The dissociation constant (KD) was determined from the kon/koff values. To estimate affinity of interaction the corresponding free energy of binding ΔGbind=RTlnKD was calculated as previously described (Marles et al., Mol Cell 14 (2004) 813-823).
Specific concentration-dependent responses were obtained for both interactions. […] Calculated free energies for a2N(wt)/ARNO(wt) and a2N-01/Sec7 binding are −8.86 kcal mol^−1 and −8.81 kcal mol^−1, respectively (Marles et al., Mol Cell 14 (2004) 813-823). […]

[1] = a2N immobilized, ARNO as analyte, 25° C.

- Kd (a2N immobilized on sensor chip, ARNO as analyte, 25° C., bivalent analyte isotherm, read-out: dissociation constant KD): 313 nM
- association rate constant (kon) [1]: 4.77×10^3 M^−1S^−1
- dissociation rate constant (koff) [1]: 14.95×10^−4 S^−1
- calculated free energy of binding (ΔGbind=RTlnKD): -8.86 kcal/mol
B1: a2N: recombinant N-terminal cytosolic tail, amino acid residues 1-402 of mouse V-ATPase a2-subunit (protein)
chain: MGSLFRSESMCLAQLFLQSGTAYECLSALGEKGLVQFRDLNQNVSSFQRKFVGEVKRCEELERILVYLVQEITRADIPLPEGEASPPAPPLKHVLEMQEQLQKLEVELREVTKNKEKLRKNLLELVEYTHMLRVTKTFLKRNVEFEPTYEEFPALENDSLLDYSCMQRLGAKLGFVSGLIQQGRVEAFERMLWRACKGYTIVTYAELDECLEDPETGEVIKWYVFLISFWGEQIGHKVKKICDCYHCHIYPYPNTAEERREIQEGLNTRIQDLYTVLHKTEDYLRQVLCKAAESVCSRVVQVRKMKAIYHMLNMCSFDVTNKCLIAEVWCPEVDLPGLRRALEEGSRESGATIPSFMNTIPTKETPPTLIRTNKFTEGFQNIVDAYGVGSYREVNPALFTII
modifications: left off: small tags and cut ends
notes: recombinant N-terminal cytosolic tail, amino acid residues 1-402 of mouse V-ATPase a2-subunit
